The supplement of paper PMC9112550, “Optimization of the antimicrobial peptide Bac7 by deep mutational scanning” (BMC Biology, 2022)

Tested on: Escherichia coli TOP10
Assay: shrunken log2 fold change of peptide-encoding DNA abundance (4.5 h post-induction vs induction); higher = less antimicrobial activity (less host growth inhibition)
Conditions: time post-induction: 4.5 h; library: site-saturation at positions 5, 18, 19, 20
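Further: peptides expressed intracellularly from a pBAD plasmid library in pooled LB shake-flask culture, induced with 0.3% L-arabinose, DNA abundance read by NGS, three biological replicates, DESeq2 with apeglm shrinkage.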

RRIRQRPPRLPRPRPRPGTYPRP
shrunken log2 fold change: 0.00894

RRIRFRPPRLPRPRPRPVCSPRP
shrunken log2 fold change: -0.279

RRIRWRPPRLPRPRPRPCTVPRP
shrunken log2 fold change: -0.438

RRIRHRPPRLPRPRPRPLGVPRP
shrunken log2 fold change: -0.109

RRIRMRPPRLPRPRPRPVRTPRP
shrunken log2 fold change: 0.673

RRIRRRPPRLPRPRPRPRKTPRP
shrunken log2 fold change: 0.615

RRIRLRPPRLPRPRPRPACFPRP
shrunken log2 fold change: 0.259

RRIRARPPRLPRPRPRPAWNPRP
shrunken log2 fold change: -0.132

RRIRKRPPRLPRPRPRPPMFPRP
shrunken log2 fold change: 0.269

RRIRVRPPRLPRPRPRPPNIPRP
shrunken log2 fold change: -0.475

RRIRSRPPRLPRPRPRPWQEPRP
shrunken log2 fold change: 0.131

RRIRPRPPRLPRPRPRPLQLPRP
shrunken log2 fold change: -0.0598

RRIRSRPPRLPRPRPRPQPIPRP
shrunken log2 fold change: 0.000168

RRIRTRPPRLPRPRPRPPEEPRP
shrunken log2 fold change: -0.00968

RRIRIRPPRLPRPRPRPPYHPRP
shrunken log2 fold change: -0.652

RRIRQRPPRLPRPRPRPGYAPRP
shrunken log2 fold change: 0.0993

RRIRARPPRLPRPRPRPDSMPRP
shrunken log2 fold change: 0.02

RRIRQRPPRLPRPRPRPAWFPRP
shrunken log2 fold change: 0.162

RRIRCRPPRLPRPRPRPQQKPRP
shrunken log2 fold change: 0.13

RRIRFRPPRLPRPRPRPYMVPRP
shrunken log2 fold change: -0.953

RRIRFRPPRLPRPRPRPEGPPRP
shrunken log2 fold change: 0.0494

RRIRNRPPRLPRPRPRPWPLPRP
shrunken log2 fold change: -0.0801

RRIRHRPPRLPRPRPRPGWGPRP
shrunken log2 fold change: 0.0673

RRIRVRPPRLPRPRPRPEFDPRP
shrunken log2 fold change: 0.197

RRIRDRPPRLPRPRPRPDLVPRP
shrunken log2 fold change: 1.16

RRIRCRPPRLPRPRPRPHIIPRP
shrunken log2 fold change: -0.11

RRIRNRPPRLPRPRPRPFDMPRP
shrunken log2 fold change: -0.0725

RRIRCRPPRLPRPRPRPYWWPRP
shrunken log2 fold change: -0.441

RRIRFRPPRLPRPRPRPFRNPRP
shrunken log2 fold change: 0.0579

RRIRPRPPRLPRPRPRPACQPRP
shrunken log2 fold change: 0.22

RRIRIRPPRLPRPRPRPIQGPRP
shrunken log2 fold change: -0.0119

RRIRERPPRLPRPRPRPCKMPRP
shrunken log2 fold change: -0.427

RRIRNRPPRLPRPRPRPAHPPRP
shrunken log2 fold change: 0.307

RRIRFRPPRLPRPRPRPSDMPRP
shrunken log2 fold change: -0.11

RRIRDRPPRLPRPRPRPSARPRP
shrunken log2 fold change: 0.465

RRIRNRPPRLPRPRPRPWHNPRP
shrunken log2 fold change: -0.146

RRIRMRPPRLPRPRPRPFFEPRP
shrunken log2 fold change: 0.597

RRIRIRPPRLPRPRPRPRVGPRP
shrunken log2 fold change: 0.334

RRIRERPPRLPRPRPRPVYWPRP
shrunken log2 fold change: 0.0789

RRIRMRPPRLPRPRPRPKIDPRP
shrunken log2 fold change: 0.285

RRIRLRPPRLPRPRPRPNVSPRP
shrunken log2 fold change: -0.0595

RRIRWRPPRLPRPRPRPYIRPRP
shrunken log2 fold change: -0.359

RRIRNRPPRLPRPRPRPAGRPRP
shrunken log2 fold change: 0.486

RRIRPRPPRLPRPRPRPYVVPRP
shrunken log2 fold change: -0.307

RRIRYRPPRLPRPRPRPDFVPRP
shrunken log2 fold change: -0.205

RRIRYRPPRLPRPRPRPYWHPRP
shrunken log2 fold change: -0.451

RRIRYRPPRLPRPRPRPDTSPRP
shrunken log2 fold change: -0.0824

RRIRQRPPRLPRPRPRPKQHPRP
shrunken log2 fold change: -0.239

RRIRVRPPRLPRPRPRPWIWPRP
shrunken log2 fold change: 0.00605

RRIRRRPPRLPRPRPRPRREPRP
shrunken log2 fold change: 0.435

RRIRWRPPRLPRPRPRPINWPRP
shrunken log2 fold change: 0.0481

RRIRTRPPRLPRPRPRPLTEPRP
shrunken log2 fold change: -0.23

RRIRHRPPRLPRPRPRPWMHPRP
shrunken log2 fold change: 0.0155

RRIRSRPPRLPRPRPRPCDNPRP
shrunken log2 fold change: -0.165

RRIRDRPPRLPRPRPRPTDCPRP
shrunken log2 fold change: 0.00372

RRIRGRPPRLPRPRPRPTIGPRP
shrunken log2 fold change: 0.589

RRIRLRPPRLPRPRPRPVFAPRP
shrunken log2 fold change: 0.223

RRIRDRPPRLPRPRPRPQWMPRP
shrunken log2 fold change: -0.176

RRIRNRPPRLPRPRPRPNQQPRP
shrunken log2 fold change: -0.0748

RRIRGRPPRLPRPRPRPDCVPRP
shrunken log2 fold change: 1.39

RRIRQRPPRLPRPRPRPIVYPRP
shrunken log2 fold change: -0.311

RRIRTRPPRLPRPRPRPSPVPRP
shrunken log2 fold change: 0.0854

RRIRNRPPRLPRPRPRPMKKPRP
shrunken log2 fold change: 0.00302

RRIRWRPPRLPRPRPRPNMSPRP
shrunken log2 fold change: -0.00987

RRIRYRPPRLPRPRPRPGTFPRP
shrunken log2 fold change: -0.53

RRIRARPPRLPRPRPRPRNPPRP
shrunken log2 fold change: 0.225

RRIRQRPPRLPRPRPRPVFPPRP
shrunken log2 fold change: 0.212

RRIRLRPPRLPRPRPRPSHWPRP
shrunken log2 fold change: -0.0446

RRIRNRPPRLPRPRPRPIFSPRP
shrunken log2 fold change: 0.0636

RRIRRRPPRLPRPRPRPWMYPRP
shrunken log2 fold change: -0.305

RRIRHRPPRLPRPRPRPERMPRP
shrunken log2 fold change: -0.0151

RRIRFRPPRLPRPRPRPGRPPRP
shrunken log2 fold change: 0.514

RRIRNRPPRLPRPRPRPAASPRP
shrunken log2 fold change: 0.739

RRIRPRPPRLPRPRPRPEGNPRP
shrunken log2 fold change: 0.189

RRIRPRPPRLPRPRPRPHLLPRP
shrunken log2 fold change: -0.0988

RRIRVRPPRLPRPRPRPFYCPRP
shrunken log2 fold change: -0.605

RRIRPRPPRLPRPRPRPAFKPRP
shrunken log2 fold change: 0.192

RRIRHRPPRLPRPRPRPQATPRP
shrunken log2 fold change: 0.00115

RRIRIRPPRLPRPRPRPPGIPRP
shrunken log2 fold change: -0.147

RRIRWRPPRLPRPRPRPYIYPRP
shrunken log2 fold change: -0.541

RRIRMRPPRLPRPRPRPIKPPRP
shrunken log2 fold change: -0.231

RRIRYRPPRLPRPRPRPEPSPRP
shrunken log2 fold change: -0.0733

RRIRLRPPRLPRPRPRPNSQPRP
shrunken log2 fold change: -0.32

RRIRQRPPRLPRPRPRPCMQPRP
shrunken log2 fold change: -0.238

RRIRGRPPRLPRPRPRPDLVPRP
shrunken log2 fold change: 0.529

RRIRCRPPRLPRPRPRPEMQPRP
shrunken log2 fold change: 0.526

RRIRIRPPRLPRPRPRPERWPRP
shrunken log2 fold change: 1.8

RRIRERPPRLPRPRPRPQIAPRP
shrunken log2 fold change: 0.0377

RRIRSRPPRLPRPRPRPRMVPRP
shrunken log2 fold change: 0.174

RRIRWRPPRLPRPRPRPYKRPRP
shrunken log2 fold change: -0.977

RRIRGRPPRLPRPRPRPGISPRP
shrunken log2 fold change: 0.0483

RRIRMRPPRLPRPRPRPNWKPRP
shrunken log2 fold change: -0.0351

RRIRNRPPRLPRPRPRPKNLPRP
shrunken log2 fold change: 0.13

RRIRQRPPRLPRPRPRPKSNPRP
shrunken log2 fold change: -0.29

RRIRSRPPRLPRPRPRPQKNPRP
shrunken log2 fold change: -0.247

RRIRTRPPRLPRPRPRPLRIPRP
shrunken log2 fold change: 0.00602

RRIRMRPPRLPRPRPRPWMGPRP
shrunken log2 fold change: -0.33

RRIRIRPPRLPRPRPRPQDHPRP
shrunken log2 fold change: -0.466

RRIRIRPPRLPRPRPRPRTAPRP
shrunken log2 fold change: 0.436

RRIRTRPPRLPRPRPRPPCVPRP
shrunken log2 fold change: -0.121

RRIRFRPPRLPRPRPRPVKKPRP
shrunken log2 fold change: 0.166

RRIRMRPPRLPRPRPRPHSIPRP
shrunken log2 fold change: 0.0955

RRIRSRPPRLPRPRPRPEDQPRP
shrunken log2 fold change: 0.106

RRIRGRPPRLPRPRPRPNYDPRP
shrunken log2 fold change: 0.134

RRIRQRPPRLPRPRPRPKIHPRP
shrunken log2 fold change: -0.558

RRIRNRPPRLPRPRPRPSIDPRP
shrunken log2 fold change: -0.782

RRIRERPPRLPRPRPRPSRLPRP
shrunken log2 fold change: 0.0431

RRIRWRPPRLPRPRPRPDHTPRP
shrunken log2 fold change: -0.000848

RRIRHRPPRLPRPRPRPYCSPRP
shrunken log2 fold change: -0.337

RRIRCRPPRLPRPRPRPSWWPRP
shrunken log2 fold change: 0.205

RRIRVRPPRLPRPRPRPWTWPRP
shrunken log2 fold change: -0.135

RRIRWRPPRLPRPRPRPPNQPRP
shrunken log2 fold change: 0.363

RRIRCRPPRLPRPRPRPYPWPRP
shrunken log2 fold change: -1.29

RRIRSRPPRLPRPRPRPPCPPRP
shrunken log2 fold change: 0.319

RRIRTRPPRLPRPRPRPIWEPRP
shrunken log2 fold change: -0.178

RRIRCRPPRLPRPRPRPFISPRP
shrunken log2 fold change: -0.689

RRIRRRPPRLPRPRPRPSNSPRP
shrunken log2 fold change: -0.108

RRIRLRPPRLPRPRPRPFDYPRP
shrunken log2 fold change: -0.974

RRIRFRPPRLPRPRPRPSNHPRP
shrunken log2 fold change: -0.681

RRIRIRPPRLPRPRPRPEASPRP
shrunken log2 fold change: 0.144

RRIRTRPPRLPRPRPRPAGGPRP
shrunken log2 fold change: 0.304

RRIRMRPPRLPRPRPRPREKPRP
shrunken log2 fold change: 1.19

RRIRNRPPRLPRPRPRPTLWPRP
shrunken log2 fold change: 0.326

RRIRFRPPRLPRPRPRPHGAPRP
shrunken log2 fold change: 0.109

RRIRERPPRLPRPRPRPTYNPRP
shrunken log2 fold change: -0.908
